{
  "source": "patent US20170291930",
  "key": {"[1]": {"tested_on": "T1, Hst-5 synthetic peptide K13L", "T1 sequence": "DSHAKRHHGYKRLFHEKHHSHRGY"}, "[2]": {"tested_on": "T2, Hst-5 synthetic peptide K17L", "T2 sequence": "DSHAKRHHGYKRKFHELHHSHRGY"}, "[3]": {"tested_on": "T3, Hst-5 synthetic peptide K17R", "T3 sequence": "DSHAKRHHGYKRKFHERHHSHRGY"}},
  "data": [
    {"substance": "purified recombinant Sap9 (C. albicans secreted aspartic protease 9)", "values": [
      {"measurement": "cleavage site preference of Sap9 (mass spectrometry)", "setting": "[1]", "value": "K13L showed an apparent shift in cleavage site preference compared to the parent Hst-5. The fragments containing amino acids 1-12 and 13-24 had higher signals for K13L than the fragments containing amino acids 1-17 and 18-24"},
      {"measurement": "cleavage at the C-terminal side of residue 17 by Sap9 (mass spectrometry)", "setting": "[2]", "value": "while the parent Hst-5 was cleaved on the C-terminal side of K17, neither K17R nor K17L showed significant cleavage at this site"},
      {"measurement": "cleavage at the C-terminal side of residue 17 by Sap9 (mass spectrometry)", "setting": "[3]", "value": "while the parent Hst-5 was cleaved on the C-terminal side of K17, neither K17R nor K17L showed significant cleavage at this site"}
    ]}
  ]
}
